Series [1] has as its target T1, RAD51 (wild-type human RAD51 DNA strand exchange protein) (human, UniProt Q06609 1-339).
T1 sequence: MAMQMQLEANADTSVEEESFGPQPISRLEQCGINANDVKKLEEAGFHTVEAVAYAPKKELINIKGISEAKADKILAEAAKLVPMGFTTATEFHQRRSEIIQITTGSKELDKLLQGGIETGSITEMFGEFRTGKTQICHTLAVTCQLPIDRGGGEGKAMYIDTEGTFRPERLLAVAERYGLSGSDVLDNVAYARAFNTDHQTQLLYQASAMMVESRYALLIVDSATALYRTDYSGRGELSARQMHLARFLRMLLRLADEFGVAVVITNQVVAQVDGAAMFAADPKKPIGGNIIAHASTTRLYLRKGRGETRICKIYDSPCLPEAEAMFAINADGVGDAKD
The series is described as follows: fluorescence polarisation. On the technique in general: Fluorescence polarisation rises when a labelled molecule tumbles more slowly, as on binding a larger partner.

A further series has as its target RAD51 wild type (human, UniProt Q06609 1-339). Briefly: FRET.
The next series concerns the target RAD51 E42A (human, UniProt Q06609 1-339, E42A). Briefly: FRET.
For the next series, the target named is RAD51 E59A (human, UniProt Q06609 1-339, E59A). Briefly: FRET.
Another series concerns the target RAD51 E237A (human, UniProt Q06609 1-339, E237A). Briefly: FRET.

KEPTLLGFHTASGKKVKIAKESLDKVKNLFDEKEQ (FITC (fluorescein) on the N-terminus, as printed: FITC-KEPT...) [FITC-BRC4 peptide (BRC4 repeat of BRCA2)]: in series [1], binding was characterised by a dissociation constant (Kd) of 34 ± 5 nM.

B1: dT60 (poly(dT)-60) (ssDNA)
DNA: TTTTTTTTTTTTTTTTTTTTTTTTTTTTTTTTTTTTTTTTTTTTTTTTTTTTTTTTTTTT
Turning to B1, the binding result in the series with RAD51 wild type, with RAD51 E42A, in the series with RAD51 E59A and with RAD51 E237A was “binds” in each case.

As a reminder, the Kd is a measure of binding affinity in units of concentration. A higher Kd goes with weaker binding.

For the origin of these results see PMC3799448 (Nucleic Acids Research, 2013).
